Measured values reported in article PMC3169552.

Experiments:
[1] = molecular target: His6-tagged vaccinia virus D13 (native D13) (vaccinia virus, Western Reserve strain); experiment: crystal structure
[2] = molecular target: His6-tagged vaccinia virus D13 (native D13) (vaccinia virus, Western Reserve strain); experiment: negative-stain electron microscopy

Substance: His6-tagged vaccinia virus D13 (native D13) (natural protein)
- stoichiometry N [1]: 3
- stoichiometry N [2]: 3
